Earlier results in article PMC9221339.

Molecular target: IGF-II (Homo sapiens) (UniProt P01344)
Sequence (P01344 25-91): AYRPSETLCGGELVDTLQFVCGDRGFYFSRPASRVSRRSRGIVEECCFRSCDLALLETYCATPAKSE

Sequence of IGF-1R (P08069 31-736): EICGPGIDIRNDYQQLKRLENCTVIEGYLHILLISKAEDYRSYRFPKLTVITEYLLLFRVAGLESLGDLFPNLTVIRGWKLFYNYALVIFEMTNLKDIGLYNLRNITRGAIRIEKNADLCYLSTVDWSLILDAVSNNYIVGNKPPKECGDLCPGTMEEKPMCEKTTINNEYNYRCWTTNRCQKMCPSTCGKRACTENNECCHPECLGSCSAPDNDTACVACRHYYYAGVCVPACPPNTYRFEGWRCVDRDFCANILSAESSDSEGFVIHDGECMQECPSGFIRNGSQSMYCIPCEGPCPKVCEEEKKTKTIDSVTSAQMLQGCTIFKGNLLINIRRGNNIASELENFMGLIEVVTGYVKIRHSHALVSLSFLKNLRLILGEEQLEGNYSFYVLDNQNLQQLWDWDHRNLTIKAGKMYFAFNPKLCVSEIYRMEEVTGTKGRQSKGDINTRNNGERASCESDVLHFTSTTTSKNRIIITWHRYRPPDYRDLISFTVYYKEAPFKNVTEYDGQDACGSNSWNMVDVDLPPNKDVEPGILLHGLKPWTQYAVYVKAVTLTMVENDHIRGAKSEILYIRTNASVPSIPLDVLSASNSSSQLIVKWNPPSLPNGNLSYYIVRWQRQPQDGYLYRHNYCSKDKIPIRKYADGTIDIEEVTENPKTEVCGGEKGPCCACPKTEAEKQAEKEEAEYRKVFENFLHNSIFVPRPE
Sequence of IGF-1R (P08069 741-935): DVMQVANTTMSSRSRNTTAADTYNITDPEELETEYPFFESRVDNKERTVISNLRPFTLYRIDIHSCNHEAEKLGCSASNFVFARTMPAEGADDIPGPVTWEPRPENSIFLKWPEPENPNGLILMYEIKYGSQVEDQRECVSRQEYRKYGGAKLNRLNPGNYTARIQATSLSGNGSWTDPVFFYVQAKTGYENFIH

## IGF-1R (from UniProt P08069)
  Kd: 3 nM
